Experimental data reported in patent publication US20180311373A1.

Molecular target: HLA-A2 on HLA-A2 positive lymphocytes / PBMCs (human)
Assay: cell-based or functional assay

G-Body inhibitory effect on proliferation of PBMCs; CD3/CD28 beads; HLA-A2 positive donor C; Day 7: 70%
G-Body inhibitory effect on proliferation of PBMCs; CD3/CD28 beads; HLA-A2 positive donor D; Day 7: 50%
G-Body inhibitory effect on proliferation of PBMCs; CD3/CD28 beads; HLA-A2 positive donor G; Day 3: 40%
G-Body inhibitory effect on proliferation of PBMCs; CD3/CD28 beads; HLA-A2 positive donor G; Day 7: 50%
G-Body inhibitory effect on proliferation of PBMCs; CD3/CD28 beads; HLA-A2 positive donor J; Day 3: 50%
G-Body inhibitory effect on proliferation of PBMCs; SEB; HLA-A2 positive donor C; Day 3: 60%
G-Body inhibitory effect on proliferation of PBMCs; SEB; HLA-A2 positive donor J; Day 3: 70%
G-Body inhibitory effect on proliferation of PBMCs; SEB; HLA-A2 positive donor J; Day 7: 70%
Substance: conjugate C (streptavidin-linked BB7.2 monoclonal antibody mixed with biotinylated HLA-G) (from UniProt P22629 37-163; P17693 25-299)
